{
  "source": "the DeepSol protein solubility set",
  "data": [
    {"assay": "soluble on expression in E. coli; label from the status in PepcDB or PDB records", "values": [
      {"sequence": "MVKRNKVIKQQSCPLIDTINVISRKWLLLVLNTIGNEGKLGFNSILNSIDDISPKALSDVLKTMEEMGLVKKVIVKSSPPRVEYSLTYEGKKLRKAVIPLFKWAAEHTGHYECPILQSNKLNKEEYS", "soluble on expression in E. coli": "soluble"},
      {"sequence": "MKKVLIVFGTRPEAIKMAPLVQQLCQDNRFVAKVCVTGQHREMLDQVLELFSITPDFDLNIMEPGQTLNGVTSKILLGMQQVLSSEQPDVVLVHGDTATTFAASLAAYYQQIPVGHVEAGLRTGNIYSPWPEEGNRKLTAALTQYHFAPTDTSRANLLQENYNAENIFVTGNTVIDALLAVREKIHTDMDLQATLESQFPMLDASKKLILVTGHRRESFGGGFERICQALITTAEQHPECQILYPVHLNPNVREPVNKLLKGVSNIVLIEPQQYLPFVYLMDRAHIILTDSGGIQEEAPSLGKPVLVMRETTERPEAVAAGTVKLVGTNQQQICDALSLLLTDPQAYQAMSQAHNPYGDGKACQRIADILAK", "soluble on expression in E. coli": "not soluble"},
      {"sequence": "MLDPGPNPAPRPSRDRAPHAVVIGSGFGGLAAAVRLGAKGYRVTVLEKLDKAGGRAYVHKQDGFSFDAGPTIVTAPYLFEELWKLCGKRMSDDITLKPMSPFYRIRFDDGTHFDYSDDRDAVLDQIAKFCPDDVPAYDRFMAASHEIFKVGFEQLGDQPFSHFTDMLKIAPAMIKLESYRSVYGLVAKHFKDPKLRQVFSFHPLLIGGNPFMSSSVYCLITYLEKQWGVHSAMGGTGALVTGLVNLIEGQGNTIRYNQDVRQIVVENGTACGVKLADGEVIKADIVVSNADSASTYRYLLPPETRKRWTDAKIEKSRYSMSLFVWYFGTKRRYEDVKHHTILLGPRYKELISDIFSRKVVAEDFSLYLHRPTATDPSLAPQGCDTFYVLSPVPNLLGDTDWHTKAETYRASIAKMLGATVLPDLENQIATSKITTPIDFQDRLSSFRGAAFGLEPVLWQSAWFRPHNQSEDVKRLYLVGAGTHPGAGLPGVLSSARVLDALVPEADSLVTSLEHHHHHH", "soluble on expression in E. coli": "not soluble"},
      {"sequence": "MSLGLVVLKFGGTSVSTVDKIGKTADQAIYEKKQGNKVIVVVSAMGKSTDKLVAMAEEISEAPDKREMDMLLSTGEQITIALLAMTLKEKGHDAISYTGWQAGIETEAVHSNARIADIDSARIESALDAGQIVVVAGFQGFTTDGEITTLGRGGSDTTAVAIASALNAEKCAICTDVVGVFTTDPRYVKKAQKLEQITYDEMLELANLGAGVLHPRSVEYAKNFRIPLEVRASHEQVPGTMIEEDLTMENTKVVRGIAFEDQITRVTIHWKQKEAMRVSKVFTKLAENNIDVDIIIQGITGLGHGNLSFTIKTSALLATLAVLEESKELLQIEKLESEQELAKVSIVGSGMVSNPGVAAQMFEALTENNIPIKMISTSEIKVSTVVPARKMVEAAQVLHDQFELDKEGHHHHHH", "soluble on expression in E. coli": "not soluble"},
      {"sequence": "MTKLGYVMTKSSAKNFKIYINGSAKGFKNIIISGAKAWNPSPYLNTVSIGNDVRPNYTVSSSGTNKGSVLAVCNTTYYKSNKLISKNEITLYKGFRSLSTNHKIETIVHEFGHGFGLGHVKTKNAIMLDKGFINKTKPQTDDFNGIKALYKLEHHHHHH", "soluble on expression in E. coli": "soluble"},
      {"sequence": "MSQDLQKEVASRKTFAIISHPDAGKTTITEQLLLFGGVIRSAGTVKGKKSGKFATSDWMEIEKQRGISVTSSVMQFDYNGSRINILDTPGHSDFSEDTYRTLMAVDSAVMVIDAAKGIEAQTLKLFKVCRMRGIPIFTFINKMDRQGKMPLELLAELEEVLGIESYPMNWPIGMGKELAGLYDRYHRVIEQYRSEEDERFLPLGEDGDLKEAHAIQKSLYYDQALEEIMLLDEAGNDFSRERIIAGEQTPVFFGSALTNFGVETFLRTFVDFAPAPSSHESNEGVIEADNPKFSGFIFKIQANMNPAHRDRIAFIRICSGEFERGMNVTLTRTGKSLKLANSTQFMADDRETVNRAVAGDIIGLYDTGNYQIGDTITNGSKKLEFEKLPQFTPELFMRVYAKNVMKQKHFHKGVEQLVQEGAIQLFKTWRTEEYIIGAVGQLQFEVFEHRMRGEYNSEIRMEPIGKKIARWVKEEDADEKLSTARSMLVKDRFDQPLFLFENEFAINWFNDKNPDIELTSLL", "soluble on expression in E. coli": "not soluble"},
      {"sequence": "MAHHHHHHMGVCLASLMVRRSRISEVPDRYIEERRRYGPVAVACAPPEDDVSSAVYRAAGITDEEHRRICKEWYEGENIVHRLEEICAERSDRRALAYRTVQKVETEKKTDSKGHTRNWEVTYLNDPTYMTYNEFWSRLIAFGKGLRELGLAEGAAVAIAEDVRWEWLASVLAGWTQGLISVTVYANLGEAALLHALKEAECPALICNGNAVKKLVPLLHKAKLNNTMVIYLDALPAGVDAEGMMLLSWTDVLQKGLQSCFSYTIPSDCNRTALIMYTSGTVAEPKGVIHTFGSLKTGAAALEDRLTELLGPKEEGETYLAYLPLAHILEFITEMIMLNRGSLLCYGSPRTLSDMSARPRGDLAEFRPMMFVGVPRIFETIRKNVESQLPPVGSVKRSIFDAAYAARLRAIEDGKDTPF", "soluble on expression in E. coli": "soluble"},
      {"sequence": "MGSDKIHHHHHHMKTIQPIDWLQPKTEAEEIRFRSTGFRWGNKGTHTSRTIMLDELRALLNYSRPDATRDDYVSVIIEDNCLGKRTASTRKLSLQRLSELYALDPKVLLFQLMRYFWYADRSGQAILPLLLALARDPLLRATAASVLCMHPGEEFARQPMTDALNQAAGGRFNEGTLNKIVRNAASSWTQTGHLKGRSHKVRQSIAPTAITTAYALLLGYLTGTRGAKLFETPWAQALDTPPSTLMHLAMDARRLGFLDMSQSGGIVELGFSRLLPLDERR", "soluble on expression in E. coli": "not soluble"},
      {"sequence": "MNGESDCATCTISGAKLGNALGAIWTFVHTMEQGDVVLVRHGAWLSIGIIGPYRYVKHLDNDIYGFCHQRSVEWKIINENVRLYNEKVHETLRHPGVVTKSKYTVHELQLGIEW", "soluble on expression in E. coli": "not soluble"},
      {"sequence": "MGSDKIHHHHHHMLGSNMLLTNRIDLRSYHTESCSHTHDFAQLVLPVSGSMELEVGHYSGVVNDDIGVYIAPNEQHCFAGSQKNLFLVIDATTQNSLRDEAFESNILNLTASTKKLIQFTHHYLAHNERDFFTDSLINQLLFHFAASSFSPEPDLVVIRAKQWIDLYFADSVNVNRVAKHCYLSISQLQRRFKQMLGCGIAEYWRMKKLLHAKKLLSQKNCSIEAIAFEVGYENLPAFSRRFSKVFGESPSQWRSKALTAKKMREIDK", "soluble on expression in E. coli": "not soluble"},
      {"sequence": "AHHHHHHGSSLGGSADDTYLHEIIKKAYEAGIVIVAAAGNEGASSPSYPAAYPEVIAVGATDINDQVPYWSNRQPEVSAPGVDILSTYPDDTYETLSGTSMATPHVSGVVALIQAAYYLKYGKVLPVGTFDDMSTNTVRGILHLAVDDLGDPGWDIYYGYGIIRADKAIQLALF", "soluble on expression in E. coli": "not soluble"},
      {"sequence": "MLSAESLKQIDIELAKYPADQRRSAIMGALRIAQTEKGWLAPETIAFVADYIGISPAQAYEVATFYNMYDLEPVGKYKLTVCTNLPCALRGGMATGEYLKQKLGISYGETTPDGKFTLVEGECMGACGDAPVMLLNNHKMCSFMTEEAIEKKLAELELEHHHHHH", "soluble on expression in E. coli": "soluble"},
      {"sequence": "MTLDELNRLLDPQVLALIDAHASDDPATFAMQFHGRGDLPVRAIAEQIACRKKAAAKLPSLSRFPMLYTRL", "soluble on expression in E. coli": "not soluble"},
      {"sequence": "MAKTLGLHILADLYGVDADKIDRVEDIRELLEGAVKYANLTKISSHYYQFQPHGATGVVLLAESHISIHTWPEHGLATVDVYTCGDPSKAYRAMDYIITQLNPKRIDKQVHERGIVEEESNQSEAEKLRSILLQV", "soluble on expression in E. coli": "soluble"},
      {"sequence": "MTLHKPTQAVPCRAPKVGRLIYTAGGYFRQSLSYLEAYNPSNGSWLRLADLQVPRSGLAGCVVGGLLYAVGGRNNSPDGNTDSSALDCYNPMTNQWSPCASMSVPRNRIGVGVIDGHIYAVGGSHGCIHHSSVERYEPERDEWHLVAPMLTRRIGVGVAVLNRLLYAVGGFDGTNRLNSAECYYPERNEWRMITPMNTIRSGAGVCVLHNCIYAAGGYDGQDQLNSVERYDVETETWTFVAPMRHHRSALGITVHQGKIYVLGGYDGHTFLDSVECYDPDSDTWSEVTRMTSGRSGVGVAVTMEPCRKQIDQQNCTCY", "soluble on expression in E. coli": "soluble"},
      {"sequence": "MSEFEGWIKWLEPVFLLWKPEDPGYERPAYRDWTKEEDEPKYSPEKELALLDKQILASDGFDIDFTHFRCVFNYHLAYLDSHEFVDEPETTRDLLERLSRKALDDYNQESVVKANFHFCCAIMFLITFEVVDPYDNLIKLFQTRVRHAEDIVTEYVFCRPKPNQGVECIGVKNNDGKDVQTNVKEQEIPCMYGWFLRVITITFTLQIGVGASICHKE", "soluble on expression in E. coli": "soluble"},
      {"sequence": "MSLKAPVDFEQEVAPLLSQRCVSCHSPNIKKGELSLAGPEDLLANGYVVPGDPAGSYLLEVVSPAGDDPAAMPKLGDALAEPEVALLRRWIEQGAVWPDGFVIREASKADRSWWSLQPLADIHPPEVAAAPAAWRQNPIDRFVWAKLSEANLKPNSPADRRTLIRRATFDLTGLPPTAEEIDTFVASDSPDAYPQLIDRMLASPRYGERWGRHWLDVIRFGESRGFERNQIITNLWPFRDYVIRSINEDKPFDQFIREHLAGDVIAPNTPQVEVGSAFLVAGPYDDVGNEGHHHHHH", "soluble on expression in E. coli": "soluble"},
      {"sequence": "MSLEEDIQKQIIAAKEEAHDETIWGKPANDIITGIGNNSGVRPQRAIWEMVQNARDVSLNGKADIVFERQHDCFIFQHNGISFTNNTLEALILQTSSKVRNDSVQVGQYGTGFLTTHKLGLKFTLSSSVQLLENEQLFHHFSNFLIDRSSTDKKQMRDSLKKQIKITEEWARNPTIVSGPSSLTTFRYIQEHEVEKMNTKEAFKASSALAPYVIALNPCVNSISFVDNVEDCKELYIRKSTEIINTCDFYNVVKVTIDKCETESCDFTVLMLQSKETVEESGEPKVIVILPIKELESKSVAFALSKDVPNLFIYLPLLGTEQWGLNFIFHSPLFTCDKDSRDSLRFVGNGQNNDVDAERNKGIIQLADVIVSHYITENLSNIQDCMYLAKVAFNLHNSDEALANYYKSLQSSWVKKYESFPFVITKNGNIITRQAKVFDKELFDACLENKDLLTAVYNVTVQIYGTDYLPLETNMLFWSETLLQWYEAESFNPHLIHLSDIVEYIDKNNITTIGEENLWCIDNYIANSKQIGLFTKYKLLPTKNGELRVREDLLNPIIHDESLLKILDSLLPNDVASFIHTRFVLFEDVKIEEYDHNKVKESMRLLVSELSDLQKGHEIYRTNILAGLDVDSNKYEQNKLSDNHINALMGFYAYIVNIGGEAFQYKMIHLLADFYNIDLKSGEAYIKEIYDWRTVAPLLIKDALFRFTLMDSEGHHHHHH", "soluble on expression in E. coli": "not soluble"},
      {"sequence": "MSLSEPILFVDDEQHVLNALQRVFSESGLETVFTRSPIEALELCRSKKFAVIVSDNMMPEMKGIELLTRIKEESPETVKCLLTAHADLDTALQAINSGEVFRFIVKPWRNEELYQAVSEGVARFREGHHHHHTDPNSSSVDKLAAALEHHHHHH", "soluble on expression in E. coli": "soluble"},
      {"sequence": "MSLEVKVGLAPMAGYTDSAFRTLAFEWGADFAFSEMVSAKGFLMNSQKTEELLPQPHERNVAVQIFGSEPNELSEAARILSEKYKWIDLNAGCPVRKVVKEGAGGALLKDLRHFRYIVRELRKSVSGKFSVKTRLGWEKNEVEEIYRILVEEGVDEVFIHTRTVVQSFTGRAEWKALSVLEKRIPTFVSGDIFTPEDAKRALEESGCDGLLVARGAIGRPWIFKQIKDFLRSGKYSEPSREEILRTFERHLELLIKTKGERKAVVEMRKFLAGYTKDLKGARRFREKVMKIEEVQILKEMFYNFIKEVEGGSHHHHHH", "soluble on expression in E. coli": "soluble"},
      {"sequence": "MKNFVRTTLLAATLAGVSFGAFATAVPNPPLPAQDPIVQHLKLTNDQITRIKKLHQQLETDVSQISMKGIKDGALIEVIKSGKWDDAAVKQQLAAFSNIEQQARYYRVKYYFDLSKVLTPEQRQQVQQDLAQALELEHHHHHH", "soluble on expression in E. coli": "soluble"},
      {"sequence": "MSLQRLNVEFRSEGVALRGWLYLPEARAERPAIVMTHGFSGVKEQYLDRYAEVFAAAGFVVLLYDHPNFGDSDGEPRQEIDPVMQRRGYRDAITWLGAQARVDASRIGIWGTSYSGGHVLEVAALDRRVKCVVAQVPTVSGHASALRRTRAEQLPALLASFDADRQRRFEGLPPALLPAVAASPDEPCAMAGADAHRFFTDSAALAPNWCNRVTLRSAELARENEPGIHIGRISPTPLLMIVADRDLLTPTDLCLEAYQRALPPKRLLMLAGGHFTPYIEHFDATSQAAADWFVRHLGEGGEQPATVVEEGGSHHHHHH", "soluble on expression in E. coli": "soluble"}
    ]}
  ]
}
